Source: US12180473B2, “Chimeric RNA-driven genomic rearrangement in mammalian cells” (priority 2018, dated 2024)
Entries after “also recorded” stand apart in the source; their conditions may differ. Read-outs that look alike come from different tables or passages of the source.

How the values were obtained:
JAZF1-SUZ12 fusion = assay: Nested RT-PCR of induced JAZF1-SUZ12 fusion transcript in 293T cells; type: cell-based, human
Description: FIGS. 39A-39D. RNA-mediated inter-chromosomal JAZF1-SUZ12 fusion in 293T cells. FIG. 39A. The design of chimeric RNA is based on the three-way junction that could be formed between genomic DNA (in the stem) and chimeric RNA (perpendicular and below the stem). The three-way junction comprises an RNA/DNA hybrid and a genomic DNA stem between the parental genes (JAZF1 and SUZ12). The sense genomic strand of JAZF1 gene is on the negative strand of chromosome 7 while that of SUZ12 is on the positive strand of chromosome 17. Short vertical lines in gray regions between the chromosome and the chimeric RNA represent base pairings. FIG. 39B. […] This chimeric RNA target intron regions and has GC content of 27%. The fusion RNA transcribed from the induced fusion gene contains an annotated splice junction. In this particular case, two different fusion RNAs were confirmed based on the results derived from the Sanger sequencing data. FIG. 39B discloses the JAZF1 targeting sequence as SEQ ID NO: 236, the SUZ12 targeting sequence as SEQ ID NO: 237, and the chimeric sequence as SEQ ID NO: 238. FIG. 39C. Example of inter-chromosomal JAZF1-SUZ12 fusion transcript (arrow) induced by sequence-specific chimeric RNAs in 293T cells without additional hormone or other stimuli. 293T cells were transfected with chimeric RNA expression plasmid. Total RNA was then harvested at day 3. […]

BCR-KCNQ2 fusion = assay: Nested RT-PCR of induced BCR-KCNQ2 fusion transcript in HL-60 cells; type: cell-based, human
Description: FIGS. 41A-41D. RNA-mediated inter-chromosomal BCR-KCNQ2 fusion in HL-60 cells by designed chimeric RNA. FIG. 41A. The design of chimeric RNA is based on the three-way junction that could be formed between genomic DNA (in the stem) and chimeric RNA (perpendicular and below the stem). The three-way junction consists of an RNA/DNA hybrid and a genomic DNA stem (black) between the parental genes (BCR and KCNQ2). The sense genomic strand of BCR gene is on the positive strand of chromosome 22 while that of KCNQ2 is on the negative strand of chromosome 20. Short lines in gray regions represent base pairings. FIG. 41B. […] This chimeric RNA target intron regions and has GC content of 55.4%. The fusion RNA transcribed from the induced fusion gene contains an annotated splice junction. In this case, two different fusion RNAs were confirmed based on the results derived from the Sanger sequencing data. FIG. 41B discloses the BCR targeting sequence as SEQ ID NO: 242, the KCNQ2 targeting sequence as SEQ ID NO: 243, and the chimeric sequence as SEQ ID NO: 244. FIG. 41C. Two BCR-KCNQ2 fusion transcript variants were induced in HL-60 cells by chimeric RNA targeting BCR and KCNQ2 genes in the genome without hormone or other stimuli. FIG. 41D. Schematic of induced BCR-KCNQ2 fusion transcripts derived from the Sanger sequencing data. […]

TMPRSS2-ETV1 fusion = assay: RT-PCR detection of induced TMPRSS2-ETV1 fusion transcript in LNCaP cells; type: cell-based, human; settings: for TMPRSS2-ETV1 fusion, specificity of input RNA: three-round nested PCR (FIG. 4C)
Protocol: • 1st Round: Top down PCR with TMPRSS2 ex-1 F1 and ETV1 ex-6 R1 • Denaturation 94° C., 30 sec • Annealing * , 45 sec • Extension 72° C., 60 sec
The Denaturation, Annealing and Extension steps were performed 2 cycles. • 2 cycles at each temperature: 62° C., 61° C., 60° C. . . .
Long Range PCR for Detecting Genomic DNA Fusion Junction

TMPRSS2-ETV1 fusion gene = assay: FISH with 3D image reconstruction, co-localization of TMPRSS2 and ETV1 in enriched LNCaP population; type: cell-based, human; settings: 30 out of 3301 cells
Protocol: Enriched population carrying TMPRRS2-ETV1 fusion events were first grown on 18 mm round #1 coverglass in a 12-well cell culture plate at the initial density of 200-400 k/well. Cells were then fixed with 4% (vol./vol.) formaldehyde followed by denaturation of DNA with 0.1 N HCl for 5 min and with 70% formamide at 85° C. for 7 min. Hybridization of target DNA with probes were done at 37° C. for 16 hr in a humidified chamber. Cells were then washed, stained with DAPI and imaged with microscope. FISH probes for TMPRSS2 (RP11-35C4, red) and ETV1 (RP11-769K2, green) were purchased from Empire Genomics.

[1] = tested on: TMPRSS2-ETV1 genomic breakpoints; assay: Genomic PCR of TMPRSS2-ETV1 genomic breakpoints in enriched LNCaP population; type: cell-based, human; settings: enriched vs untransfected LNCaP cells
Protocol: (§1) Nested long-range PCRs according to the manufacturer's protocols using LA PCR kit (Takara, #RR002M). 200 ng of genomic DNA was used in each reaction and PCR was performed with annealing and extension at 68° C. for 20 minutes. 1 μl from the above reaction (1st round PCR) was used as template for the 2nd round PCR.

[2] = RT-PCR detection of input RNA in propagated/enriched LNCaP population; type: cell-based, human; settings: enriched LNCaP population
Protocol: FIG. 18. Procedure used to propagate and enrich the induced LNCaP population for 52 days in the absence of DHT. LNCaP cells were transfected on day 1 with antisense-5 and incubated for 3 days with DHT. Cells were then divided into sub-populations. Half of the cells from each sub-population were harvested for RT-PCR assays to detect the induced fusion transcript whereas the other half was used to propagate the population. […] The process was continued for 52 days.

TMPRSS2-ERG fusion [3] = assay: RT-PCR detection of induced endogenous TMPRSS2-ERG fusion transcript in LNCaP cells expressing input RNA; settings: for TMPRSS2-ERG fusion, specificity of input RNA: three-round nested PCR (FIG. 4C); for induction of endogenous TMPRSS2-ERG fusion transcript (RT-PCR): LNCaP cells transfected with input RNA plasmid, DHT for 3 days
[4] = tested on: TMPRSS2-ERG genomic breakpoint; type: cell-based, human
Protocol: as §1
For the genomic breakpoint identified in this manuscript, 1st round long range PCR was done using primers TMPRSS2 genomic bk-F1 and ERG genomic bk-R1 shown in primer list below. 1 μl from the above reaction (1st round PCR) was used as template for the 2nd round PCR using inner primers TMPRSS2 genomic bk-F2 and ERG genomic bk-R2.

TMPRSS2-ERG fusion [5] = tested on: TMPRSS2-ERG fusion
BCR-RANGAP1 fusion = assay: Nested RT-PCR of induced BCR-RANGAP1 fusion transcript in 293T cells; type: cell-based, human
Description: FIGS. 40A-40C. RNA-mediated intra-chromosomal BCR-RANGAP1 fusion in 293T cells by designed chimeric RNA. FIG. 40A. The design of chimeric RNA is based on the three-way junction that could be formed between genomic DNA (in the stem) and chimeric RNA (perpendicular and below the stem). The three-way junction consists of an RNA/DNA hybrid and a genomic DNA stem between the parental genes (BCR and RANGAP1). The sense genomic strand of BCR gene is on the positive strand of chromosome 22 while that of RANGAP1 is on the negative strand of chromosome 22, separated by 18 Mb. Short lines in gray regions represent base pairings. FIG. 40B. […] This chimeric RNA target intron regions and has GC content of 48.4%. The fusion RNA transcribed from the induced fusion gene contains an annotated splice junction. FIG. 40B discloses the BCR targeting sequence as SEQ ID NO: 239, the RANGAP1 targeting sequence as SEQ ID NO: 240, and the chimeric sequence as SEQ ID NO: 241. FIG. 40C. Intra-chromosomal BCR-RANGAP1 fusion transcript (arrow) induced by sequence-specific chimeric RNA in 293T cells without additional hormone or other stimuli. 293T cells were transfected with chimeric RNA expression plasmid. Total RNA was then harvested at day 3. Nested RT-PCR using specific primer pairs were used to detect the induced fusion transcript. […]

[6] = 293T, day 3, without hormone or other stimuli

B1: JS-8: chimeric RNA, JAZF1-SUZ12, GC content 27% (nucleic acid)
chain: TCAACAAAAGAACTATTGATTGATGCCAAACAAGATGAAAATTTCACTTTGCGTATTAGTTACCAAAGGTTTATTTATGTTTCTGTAATGCATATTTATA
modifications: chimeric RNA, chemistry not given here
Which “induction of JAZF1-SUZ12 fusion” value (JAZF1-SUZ12 fusion; [6]) does the source give for B1 here?
The value was “induce JAZF1-SUZ12 fusion”.

And the “Cell line(s) identified” value (JAZF1-SUZ12 fusion; fusion gene partners JAZF1-SUZ12)?
The value was 293T.

B2: S4 30-2: chimeric RNA, BCR-KCNQ2, GC content 55.4% (nucleic acid)
chain: GAGATCGAGACCATCCTGGCTAACGCAGTGAAACCCCGTCTCTACATTACCAGCCTTCACTGTTCTGACAGCTCCAGTAGCTGGGGGAGACC
modifications: listed as DNA, further chemistry not given here
For B2, which “induction of BCR-KCNQ2 fusion” value (BCR-KCNQ2 fusion; HL-60, nucleofection, day 7) is on record?
Its value is “induce BCR-KCNQ2 fusion”.

And the “Cell line(s) identified” value (BCR-KCNQ2 fusion; fusion gene partners BCR-KCNQ2, HL-60)?
The value was “HL-60”.

B3: Antisense-TMPRSS2-ETV1-A1: input RNA, SEQ ID NO: 34; antisense RNA designed to target stem TMPRSS2-ETV1-A (nucleic acid)
antisense: TGTGCTCGCTTCGGCAGCACATATACTAACATTGGAACGATCCTGCAGTGCCGCATTATGTAAATCGTTCCAAGTTAAAGTCTTAGTTAGATTCAGTAGACTAGGAGCCAGCTTTGGGGACCCCGGGGGACTCTCTTCCACCAACTGG
Which results are given for B3?
TMPRSS2-ETV1 fusion, specificity of input RNA (TMPRSS2-ETV1 fusion; LNCaP): induced TMPRSS2-ETV1 fusion; induction of TMPRSS2-ETV1 fusion transcript (RT-PCR) (TMPRSS2-ETV1 fusion; LNCaP, two-round nested PCR): clear induction of the TMPRSS2-ETV1 fusion transcript; also recorded: led to induced fusion transcript; persistence of induced TMPRSS2-ETV1 fusion transcript (TMPRSS2-ETV1 fusion; enriched LNCaP population post initial treatment): ≥ 47 days; Cell line(s) identified (TMPRSS2-ETV1 fusion; fusion gene partners TMPRSS2-ETV1): LNCaP; cells positive for TMPRSS2-ETV1 fusion gene by co-localized FISH signals (TMPRSS2-ETV1 fusion gene): Approximately 0.9%; genomic TMPRSS2-ETV1 fusion bands x, y, z [1]: present only in the induced and enriched LNCaP population; time after transfection until which transiently expressed input RNA is present (RT-PCR) [2]: < 47 days; TMPRSS2-ERG fusion, specificity of input RNA (TMPRSS2-ERG fusion [3]; LNCaP): not TMPRSS2-ERG fusion

B4: Antisense-5: input RNA, SEQ ID NO: 8 (nucleic acid)
antisense: TGTGCTCGCTTCGGCAGCACATATACTAACATTGGAACGATCCTGCAGCTTGAGCCATTCACCTGGCTAGGGTTACATTCCATATTGATGGTGACCCTGGCTGGGGGTTGAGACAGCCAATCCGCCGCTCACCTGCCGCGCTCCAGGCGGCGCTCCCCGCCCCTCGCCCTCCGCCAGACAGGAGTGAGAGATGGAAGCTCGCGCCTACTC
For B4, which “TMPRSS2-ETV1 fusion, specificity of input RNA” value (TMPRSS2-ETV1 fusion; LNCaP) is on record?
The value was “not TMPRSS2-ETV1 fusion”.

What about the “genomic TMPRSS2-ERG fusion band (~862 bp, primer pair A/D)” value [4] of the same molecule?
The value was “present only in the enriched LNCaP population”.

And the “time after transfection until which transiently expressed input RNA is present (RT-PCR)” value [2]?
Its value is at most 17 days.

And the “Cell line(s) identified” value (TMPRSS2-ERG fusion [5])?
Its value is “PNT1A”.

What about the “endogenous ERG mRNA (RT-PCR)” value (ERG mRNA) of the same molecule?
Its value is “not detected”.

What about the “endogenous ERG mRNA (three-rounds of nested RT-PCR)” value (ERG mRNA) of the same molecule?
The value was “not detected”.

And the “induction of endogenous TMPRSS2-ERG fusion transcript (RT-PCR)” value (TMPRSS2-ERG fusion [3])?
The value was “clear induction”.

What about the “induction of endogenous TMPRSS2-ERG fusion transcript (RT-PCR)” value (TMPRSS2-ERG fusion [3]; listed as antisense-5) of the same molecule?
The value was “peaked; also recorded: sufficient to induce TMPRSS2-ERG gene fusion”.

What about the “lowest DHT concentration at which fusion induction occurred” value (TMPRSS2-ERG fusion [3]; LNCaP, 3 days, three-rounds of nested PCR) of the same molecule?
The value was 20 nM.

And the “TMPRSS2-ERG fusion, specificity of input RNA” value (TMPRSS2-ERG fusion [3]; LNCaP)?
Its value is “induced TMPRSS2-ERG fusion”.

What about the “persistence of induced TMPRSS2-ERG fusion transcript” value (TMPRSS2-ERG fusion [3]; enriched LNCaP population propagated in absence of DHT and input RNA) of the same molecule?
The value was at least 52 days.

And the “Cell line(s) identified” value (TMPRSS2-ERG fusion [3]; fusion gene partners TMPRSS2-ERG, LNCaP)?
Its value is “LNCaP,”.

And the “induction of TMPRSS2-ERG fusion after transfection of digested plasmid fragments” value (TMPRSS2-ERG fusion [3]; plasmid cut SacII/KpnI or SacII/PstI)?
Its value is “induced only when the U6 promoter was attached to antisense-5 sequence”.

B5: S1-7: chimeric RNA, BCR-RANGAP1, GC content 48.4% (nucleic acid)
chain: AGAATATGTGTAATTGTGTTACCAGCCTTCACTGTTCTGACAGCTCCAGTAGCTGGGGGAGACC
modifications: chimeric RNA, chemistry not given here
Which “induction of BCR-RANGAP1 fusion” value (BCR-RANGAP1 fusion; [6]) does the source give for B5 here?
The value was “induce BCR-RANGAP1 fusion”.

And the “Cell line(s) identified” value (BCR-RANGAP1 fusion; fusion gene partners BCR-RANGAP1)?
The value was 293T.
